Laboratory results as given in patent US20220112295A1 (Novo Nordisk, published 2022).
Substitutions are numbered along the chain they refer to.

How the values were obtained:
mouse CD30L = target: T1, mouse CD30L (mouse, UniProt P32972 68-239, limits assumed); experiment: not described
T1 construct: The form tested is not described
T1 sequence (looked up): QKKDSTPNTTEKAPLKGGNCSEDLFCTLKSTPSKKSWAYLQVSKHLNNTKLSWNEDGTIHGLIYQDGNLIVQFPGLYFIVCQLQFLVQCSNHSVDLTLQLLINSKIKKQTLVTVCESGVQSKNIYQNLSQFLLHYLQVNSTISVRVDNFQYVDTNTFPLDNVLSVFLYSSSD

[1] = target: T2, native human CD30L expressed on Ramos cells (human, UniProt P32971 1-234); experiment: cell-based or functional assay
T2 sequence: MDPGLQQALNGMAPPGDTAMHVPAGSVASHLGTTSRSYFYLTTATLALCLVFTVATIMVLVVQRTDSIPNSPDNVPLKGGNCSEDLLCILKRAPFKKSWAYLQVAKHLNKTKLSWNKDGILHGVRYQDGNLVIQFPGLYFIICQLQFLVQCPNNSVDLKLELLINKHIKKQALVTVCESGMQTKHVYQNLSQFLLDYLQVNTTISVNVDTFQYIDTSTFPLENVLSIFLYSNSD

cyno CD30L LZ = target: T3, cyno CD30L LZ (cynomolgus monkey, UniProt A0A7N9CVX7 63-234); experiment: cell-based or functional assay
T3 sequence: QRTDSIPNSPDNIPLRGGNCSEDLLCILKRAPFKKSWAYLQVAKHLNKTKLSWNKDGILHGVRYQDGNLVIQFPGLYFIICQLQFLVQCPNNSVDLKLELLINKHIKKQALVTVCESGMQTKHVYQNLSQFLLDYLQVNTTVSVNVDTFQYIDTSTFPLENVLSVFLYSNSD

[2] = target: T4, native cynomolgus monkey CD30L on activated T cells (cynomolgus monkey, UniProt A0A7N9CVX7 1-234); experiment: FACS, native cyno CD30L on activated cynomolgus T cells
T4 construct: whole, on cells; also called cynomologous CD30L
T4 sequence: T2 sequence with A19T, M20T, G32E, L41F, V75I, K78R, I204V, I227V
Procedure: The antibodies were rescreened for binding to native human and cynomologous monkey CD30L. Briefly, human Burkitt's lymphoma Ramos cells (3×10⁵/well) were incubated in round-bottomed 96-well microtiter plates (Costar® 96 well plate (Corning; Acton, Mass.) with a titration (10 μg/mL to 3.2 ng/mL final concentration) of anti-CD30L IgG antibodies in blocking buffer (PBS containing 0.02% sodium azide, 2% normal goat serum and 1% normal rabbit serum). Human […] fusion protein was included as a positive control for binding. Cells were incubated for 30 minutes at 4° C. then washed ×2 with PBS and incubated for a further 30 minutes at 4° C. with 30 μL/well of anti-hu IgG-biotin (1:50 in blocking buffer; Jackson Immunoresearch, West Grove, Pa.). After washing ×2 with PBS, cells were incubated for 30 minutes at 4° C. with 30 μL/well (1:50 dilution in PBS) of Streptavidin-Phycoerythrin (PE; Molecular Probes, Eugene, Oreg.). Cells were washed 2× with PBS and prepared for FACs analysis.
(§1) Cynomologous activated T cells were prepared by isolating peripheral blood mononuclear cells (PBMC) from heparinized cynomolgus monkey blood by density centrifugation over Isolymph (2000 rpm. for 20 minutes). PBMC were resuspended in 25 mLs of PBS, added to 300 μl of a 50% solution of 2-Aminoethylisothiouronium bromide (AET)-treated sheep erythrocytes and centrifuged at […] at 4° C. for 10 minutes. Pelleted cells were incubated at 4° C. for a further 20 minutes, gently resuspended and centrifuged over Isolymph. Supernatant was removed down to the T cell/erythrocyte pellet. The pellet was then resuspended in 25 mL of lyses buffer (0.85% ammonium chloride in water) and incubated at 37° C. for 10 minutes. The resultant T cells were pelleted and washed x2 in culture medium (RPMI-1640 medium +10% heat-inactivated fetal bovine serum) and then cultured ([…]) at 37° C. for 18 hr in the presence of 10 ng/mL Phorbol Myristate Acetate (PMA; Sigma Chemicals, St Louis, Mo.) and 500 ng/mL lonornycin (Calbiochem, San Francisco, Calif.). At the end of the culture period, cynomolgus T cells were counted and washed 1× with PBS and incubated with 2% Goat serum, 1% Rabbit serum and 0.1% Human serum in PBS for 30 minutes at […]. Cells were then stained with anti-huCD30L antibodies as described above for human Ramos cells.

[3] = target: T4, native cynomolgus monkey CD30L on …; experiment: FACS, antibody at 50 ug/mL, inhibition of huCD30.Fc-His binding to activated cynomolgus T cells
Procedure: as §1
The antibodies were also screened for ability to block binding of human CD30L to a soluble human CD30. c molecule. Briefly, human Ramos cells or activated cynomolgus monkey T cells were incubated with anti-CD30L IgGs at 50 μg/mL in blocking buffer for 30 minutes at 4° C. Soluble huCD30. Fc-His was then added at a final concentration of 2.5 ug/mL (30 μL/well) and incubated for 30 minutes at 4° C. Cells were washed ×2 with PBS and incubated with 5 μg/mL of a mouse anti-His monoclonal antibody (30μL/well in blocking buffer) and incubated for 30 minutes at 4° C. After washing ×2 with PBS, cells were incubated with anti-mouse IgG-PE (1:50 in PBS; BD Pharmingen, San Diego, Calif.) for a further 30 minutes at […]. Cells were then washed ×2 with PBS and prepared for FACs analysis.

B1: Antibody E (antibody, V domains shown)
VH: QVQLQESGPRLVKPSETLSLTCTVSGGSITNNYWSWIRQPAGKGLEWIGRVYSSGLTNYKPSLKSRVTMSVDTSKNQFSLRLNSVTAADTAVYYCARERATVTTRYHYDGMDVWGQGTSVTVSS
VL: QSALTQPASVSGSPGQSITISCTGSSSDIGTYNYVSWYQQYPGKAPELMIYEVNNRPSGVSDRFSGSTSGNTASLTISGLQANDEADYYCSSYSSSSTWVFGGGTKLTVL
notes: also called mAb E
binding result (mouse CD30L): no binding | IC50, inhibition of IL-8 release (K299/Ramos dual cell assay) [1]: 0.045 nM | IC50, inhibition of IL-8 release (K299 single cell assay with cyno CD30L LZ) (cyno CD30L LZ): 5.4 nM | EC50 [2]: 2.7 nM | % inhibition [3]: 87%

B2: Antibody A (antibody, V domains shown)
VH: QVQLQESGPGLVKPSETLSLTCTVSGGSISSYIWSWIRQPAGKGLEWIGRIYASGNTNYNPSLKSRVTMSVDTSKNQFSLKLSSMTAADTAVYYCARDYRVAGTYYYYYGLDVWGQGTTVTVSS
VL: QSALTQPASVSGSPGQSITISCTGTSSDVGVYDYVSWYQQHPGKAPKLMIYEVSNRPSGVSNRFSGSKSGNTASLTISGLQTEDEADYYCSSYTSRSTWVFGGGTKLTVL
notes: Human antibody (XenoMouse); also called mAb A; anti-hCD30L A
binding result (mouse CD30L): no binding | IC50, inhibition of IL-8 release (K299/Ramos dual cell assay) [1]: 0.028 nM | IC50, inhibition of IL-8 release (K299 single cell assay with cyno CD30L LZ) (cyno CD30L LZ): 2 nM | EC50 [2]: 2.2 nM | % inhibition [3]: 77%

B3: Antibody F (antibody, V domains shown)
VH: QVQLQESGPGLVKPSETLSLTCTVSGGSISSYYWSWIRQPAGKGLEWIGRIFASGSTNYNPSLRSRVTMSRDTSKNQFSLKLSSVTAADTAVYYCAKERVGVQDYYHYSGMDVWGQGTTVTVSS
VL: B2 VL with V31L, D33N, H41Q, N55K, K68T, T82A, E83D, Y89S, R96S
notes: also called mAb F
binding result (mouse CD30L): no binding | IC50, inhibition of IL-8 release (K299/Ramos dual cell assay) [1]: 0.06 nM | IC50, inhibition of IL-8 release (K299 single cell assay with cyno CD30L LZ) (cyno CD30L LZ): 5.5 nM | EC50 [2]: 2.9 nM | % inhibition [3]: 97%

B4: Antibody D (antibody, V domains shown)
VH: QVQLQESGPGLVKPSETLSLTCTVSGGSISSYSWSWIRQPAGKGLEWIGRTSTSGRNNYNPSLKSRVTMSVDTSKNQFSLKLNSVTAADTAVYYCARDFTIAARRYYYYGMDVWGQGTTVTVSS
VL: B2 VL with V29I, V31L, D33N, M49I, S54I, K68E, T82A, D87N, R96S
notes: also called mAb D
binding result (mouse CD30L): no binding | IC50, inhibition of IL-8 release (K299/Ramos dual cell assay) [1]: 0.062 nM | IC50, inhibition of IL-8 release (K299 single cell assay with cyno CD30L LZ) (cyno CD30L LZ): 5.4 nM | EC50 [2]: 2.7 nM | % inhibition [3]: 84%

B5: Antibody B (antibody, V domains shown)
VH: QVQLQESGPGLVKPSETLSLTCTVSGGSISSYYWTWIRQPAGKGLEWIGRIYTSGITNYNPSLKSRVTMSVDTSKNQFSLKLSSVTAADTAVYYCARERVVGASRYYYYGVDVWGQGTTVTVSS
VL: B2 VL with V31L, D33N, G43D, Y51F, S54N, K68N, T82A, R96S
notes: also called mAb B
binding result (mouse CD30L): no binding | IC50, inhibition of IL-8 release (K299/Ramos dual cell assay) [1]: 0.072 nM | IC50, inhibition of IL-8 release (K299 single cell assay with cyno CD30L LZ) (cyno CD30L LZ): 5.6 nM | EC50 [2]: 4 nM | % inhibition [3]: 88%

B6: Antibody C (antibody, V domains shown)
VH: B5 VH
VL: QSALTQPASVSGSPGQSITISCTGTSSDIGLYDYVSWYQQHPDRAPKLIIFEVNNRPSGVSYRFSGSNSGNTASLTISGLQAEDEADYYCSSYTSSSTWVFGGGTKLTVL
notes: also called mAb C
binding result (mouse CD30L): no binding | IC50, inhibition of IL-8 release (K299/Ramos dual cell assay) [1]: 0.036 nM | IC50, inhibition of IL-8 release (K299 single cell assay with cyno CD30L LZ) (cyno CD30L LZ): 3.9 nM | EC50 [2]: 1 nM | % inhibition [3]: 83%
